In patent US20040018191A1 (SCHERING, published 2004):

Target: human IGFR1 on cells (HEK293 cells transfected with IGFR1 DNA; MCF-7 cells expressing endogenous IGFR1) (human, UniProt P08069 31-1367)
Assay: cell-based or functional assay

Chain of human IGFR1 on cells (HEK293 cells transfected with IGFR1 DNA; MCF-7 cells expressing endogenous IGFR1) (P08069 31-1367 limits assumed): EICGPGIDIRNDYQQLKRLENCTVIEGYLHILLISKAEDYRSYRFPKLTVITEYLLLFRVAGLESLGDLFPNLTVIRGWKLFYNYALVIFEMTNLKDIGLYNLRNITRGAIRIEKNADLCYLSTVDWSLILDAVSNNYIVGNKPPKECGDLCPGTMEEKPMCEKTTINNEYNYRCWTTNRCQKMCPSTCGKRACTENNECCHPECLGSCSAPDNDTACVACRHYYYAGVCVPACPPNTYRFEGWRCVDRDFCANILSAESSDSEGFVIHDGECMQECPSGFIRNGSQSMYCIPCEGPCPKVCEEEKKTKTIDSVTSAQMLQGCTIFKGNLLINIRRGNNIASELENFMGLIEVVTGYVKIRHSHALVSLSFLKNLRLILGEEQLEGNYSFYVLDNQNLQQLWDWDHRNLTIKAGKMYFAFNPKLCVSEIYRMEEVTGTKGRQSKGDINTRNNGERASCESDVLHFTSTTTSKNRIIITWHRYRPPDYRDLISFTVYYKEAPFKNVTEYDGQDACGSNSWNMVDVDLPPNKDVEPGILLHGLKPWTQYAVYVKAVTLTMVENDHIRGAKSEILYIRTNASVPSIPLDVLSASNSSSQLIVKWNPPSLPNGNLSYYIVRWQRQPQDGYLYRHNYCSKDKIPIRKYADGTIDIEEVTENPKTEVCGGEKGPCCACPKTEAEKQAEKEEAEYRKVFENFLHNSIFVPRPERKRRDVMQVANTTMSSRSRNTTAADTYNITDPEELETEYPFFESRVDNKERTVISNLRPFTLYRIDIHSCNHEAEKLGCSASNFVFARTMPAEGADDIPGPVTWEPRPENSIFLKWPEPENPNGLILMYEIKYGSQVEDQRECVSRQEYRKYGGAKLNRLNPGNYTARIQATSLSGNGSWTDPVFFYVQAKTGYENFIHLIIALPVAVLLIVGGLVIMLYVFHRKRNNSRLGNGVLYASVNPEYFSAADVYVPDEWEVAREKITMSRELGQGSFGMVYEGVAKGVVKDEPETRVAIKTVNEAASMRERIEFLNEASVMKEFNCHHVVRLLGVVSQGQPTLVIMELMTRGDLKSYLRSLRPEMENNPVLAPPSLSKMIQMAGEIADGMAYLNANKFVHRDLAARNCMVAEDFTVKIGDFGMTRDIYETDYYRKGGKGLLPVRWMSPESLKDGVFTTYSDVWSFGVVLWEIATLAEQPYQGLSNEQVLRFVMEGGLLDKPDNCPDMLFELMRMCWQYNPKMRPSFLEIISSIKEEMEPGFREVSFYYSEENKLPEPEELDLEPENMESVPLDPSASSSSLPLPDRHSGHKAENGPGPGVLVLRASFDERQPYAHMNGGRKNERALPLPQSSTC

IGFR1 autophosphorylation (IGF-I stimulated cells, immunoprecipitation and Western blot), IC50 [nM]	Binder
0.1	1H3 fully human monoclonal anti-IGFR1 antibody (antibody, V domains shown) VH: EVQLVQSGGGLVLPGGSLRLSCAGSGFTFSNYAMHWIRQAPGKGLEWVSAIGAGGDTYYADSVKGRFTISRDNAKDSLYLQMNSLRAEDMAVYYCARGRHRNWYYYNKDYWGQGTLVTVSS VL: EIVLTQSPATLSLSPGERATLSCRASQSVSSFLAWYQQKPGQAPRLLIYDASNRAPGIPARFSGSGSGTDFTLTISSLEPEDFAVYYCQQRSNWPRWTFGQGTKVEIKR
0.1	15H12 fully human monoclonal anti-IGFR1 antibody (antibody, IgG3, V domains shown) VH: EVQLVQSGGGLVHPGGSLRLSCAASGFTFSSFAMHWVRQAPGKGLEWISVIDTRGATYYADSVKGRFTISRDNAKNSLYLQMNSLRAEDMAVYYCARLGNFYYGMDVWGQGTTVTVSS VL: EIVLTQVPDFQSVTPKEKVTITCRASQSIGSSLHWYQQKPDQSPKLLIKYASQSLSGVPSRFSGSGSGTDFTLTINSLEAEDAAAYYCHQSSRLPHTFGGGTKVEIKR
0.1	19D12 fully human monoclonal anti-IGFR1 antibody (antibody, V domains shown) VH: EVQLVQSGGGLVHPGGSLRLSCAASGFTFSSFAMHWVRQAPGKGLEWISVIDTRGATYYADSVKGRFTISRDNAKNSLYLQMNSLRAEDMAVYYCARLGNFYYGMDVWGQGTTVTVSS VL: EIVLTQVPDFQSVTPKEKVTITCRASQSIGSSLHWYQQKPDQSPKLLIKYASQSLSGVPSRFSGSGSGTDFTLTINSLEAEDAAAYYCHQSSRLPHTFGGGTKVEIKR
